US20040132033

Tests used:
Assay in all cases: EMSA
SBS#1140 ZFP (synthetic) = details: 100 mM KCl, 1 mM MgCl2, 100 uM ZnCl2, pH 7.5, RT
SBS#1750 ZFP (synthetic) = details: 100 mM KCl, 1 mM MgCl2, 100 uM ZnCl2, pH 7.5, RT
SBS#1760 ZFP (synthetic) = details: 100 mM KCl, 1 mM MgCl2, 100 uM ZnCl2, pH 7.5, RT
SBS#1764 ZFP (synthetic) = details: 100 mM KCl, 1 mM MgCl2, 100 uM ZnCl2, pH 7.5, RT
SBS#1755 ZFP (synthetic) = details: 100 mM KCl, 1 mM MgCl2, 100 uM ZnCl2, pH 7.5, RT
SBS#779 ZFP (synthetic) = details: 100 mM KCl, 1 mM MgCl2, 100 uM ZnCl2, pH 7.5, RT
SBS#1756 ZFP (synthetic) = details: 100 mM KCl, 1 mM MgCl2, 100 uM ZnCl2, pH 7.5, RT
SBS#1770 ZFP (synthetic) = details: target also SEQ 111; 100 mM KCl, 1 mM MgCl2, 100 uM ZnCl2, pH 7.5, RT
SBS#781 ZFP (synthetic) = details: 100 mM KCl, 1 mM MgCl2, 100 uM ZnCl2, pH 7.5, RT
SBS#519 ZFP (synthetic) = details: listed twice (-343 and -329, same 9 bp, SEQ 21 and 23); 100 mM KCl, 1 mM MgCl2, 100 uM ZnCl2, pH 7.5, RT
SBS#386 ZFP (synthetic) = details: 100 mM KCl, 1 mM MgCl2, 100 uM ZnCl2, pH 7.5, RT
SBS#705 ZFP (synthetic) = details: 100 mM KCl, 1 mM MgCl2, 100 uM ZnCl2, pH 7.5, RT
SBS#713 ZFP (synthetic) = details: 100 mM KCl, 1 mM MgCl2, 100 uM ZnCl2, pH 7.5, RT
SBS#1757 ZFP (synthetic) = details: 100 mM KCl, 1 mM MgCl2, 100 uM ZnCl2, pH 7.5, RT
SBS#1772 ZFP (synthetic) = details: 100 mM KCl, 1 mM MgCl2, 100 uM ZnCl2, pH 7.5, RT

## AAGGGTGCG (double strand) [SBS#1140 target (-287)]
SBS#1140 ZFP (synthetic)
  Kd: 0.3 nM

## ATGGAGGGC (double strand) [SBS#1750 target (-147)]
SBS#1750 ZFP (synthetic)
  Kd: 0.011 nM

## ATGGCCGGG (double strand) [SBS#1760 target (-299)]
SBS#1760 ZFP (synthetic)
  Kd: 0.42 nM

## CAAGTGGGT (double strand) [SBS#1764 target (-286)]
SBS#1764 ZFP (synthetic)
  Kd: 0.11 nM

## CGGGAGGCC (double strand) [SBS#1755 target (-319)]
SBS#1755 ZFP (synthetic)
  Kd: 0.006 nM

## CGGGGAGCA (double strand) [SBS#779 target (-356)]
SBS#779 ZFP (synthetic)
  Kd: 0.5 nM

## CGGGGAGGA (double strand) [SBS#1756/1770 target (-342)]
SBS#1756 ZFP (synthetic)
  Kd: 0.125 nM
SBS#1770 ZFP (synthetic)
  Kd: 0.01 nM

## GGGGAGCAG (double strand) [SBS#781 target (-357)]
SBS#781 ZFP (synthetic)
  Kd: 4.25 nM

## GGGGAGGAG (double strand) [SBS#519 target (-343 and -329)]
SBS#519 ZFP (synthetic)
  Kd: 1.12 nM

## GGGGCGGAG (double strand) [SBS#386 target (-111)]
SBS#386 ZFP (synthetic)
  Kd: 0.4 nM

## GGGGCGGGG (double strand) [SBS#705 target (-201)]
SBS#705 ZFP (synthetic)
  Kd: 0.01 nM

## GGTGAGGAG (double strand) [SBS#713 target (-127)]
SBS#713 ZFP (synthetic)
  Kd: 0.15 nM

## GGTGCGGAG (double strand) [SBS#1757 target (-290)]
SBS#1757 ZFP (synthetic)
  Kd: 0.05 nM

## GTGGGTGAT (double strand) [SBS#1772 target (-277)]
SBS#1772 ZFP (synthetic)
  Kd: 0.006 nM
